# Reference: IntAct's records for PubMed 25764370
# B1: Structural maintenance of chromosomes protein 5 (Saccharomyces cerevisiae), Q08204 (parent)
# chain: MTSLIDLGRYVERTHHGEDTEPRSKRVKIAKPDLSSFQPGSIIKIRLQDFVTYTLTEFNLSPSLNMIIGPNGSGKSTFVCAVCLGLAGKPEYIGRSKKVEDFIKNGQDVSKIEITLKNSPNVTDIEYIDARDETIKITRIITRSKRRSDYLINDYQVSESVVKTLVAQLNIQLDNLCQFLSQERVEEFARLKSVKLLVETIRSIDASLLDVLDELRELQGNEQSLQKDLDFKKAKIVHLRQESDKLRKSVESLRDFQNKKGEIELHSQLLPYVKVKDHKEKLNIYKEEYERAKANLRAILKDKKPFANTKKTLENQVEELTEKCSLKTDEFLKAKEKINEIFEKLNTIRDEVIKKKNQNEYYRGRTKKLQATIISTKEDFLRSQEILAQTHLPEKSVFEDIDIKRKEIINKEGEIRDLISEIDAKANAINHEMRSIQRQAESKTKSLTTTDKIGILNQDQDLKEVRDAVLMVREHPEMKDKILEPPIMTVSAINAQFAAYLAQCVDYNTSKALTVVDSDSYKLFANPILDKFKVNLRELSSADTTPPVPAETVRDLGFEGYLSDFITGDKRVMKMLCQTSKIHTIPVSRRELTPAQIKKLITPRPNGKILFKRIIHGNRLVDIKQSAYGSKQVFPTDVSIKQTNFYQGSIMSNEQKIRIENEIINLKNEYNDRKSTLDALSNQKSGYRHELSELASKNDDINREAHQLNEIRKKYTMRKSTIETLREKLDQLKREARKDVSQKIKDIDDQIQQLLLKQRHLLSKMASSMKSLKNCQKELISTQILQFEAQNMDVSMNDVIGFFNEREADLKSQYEDKKKFVKEMRDTPEFQSWMREIRSYDQDTKEKLNKVAEKYEEEGNFNLSFVQDVLDKLESEIAMVNHDESAVTILDQVTAELRELEHTVPQQSKDLETIKAKLKEDHAVLEPKLDDIVSKISARFARLFNNVGSAGAVRLEKPKDYAEWKIEIMVKFRDNAPLKKLDSHTQSGGERAVSTVLYMIALQEFTSAPFRVVDEINQGMDSRNERIVHKAMVENACAENTSQYFLITPKLLTGLHYHEKMRIHCVMAGSWIPNPSEDPKMIHFGETSNYSFD
# partner: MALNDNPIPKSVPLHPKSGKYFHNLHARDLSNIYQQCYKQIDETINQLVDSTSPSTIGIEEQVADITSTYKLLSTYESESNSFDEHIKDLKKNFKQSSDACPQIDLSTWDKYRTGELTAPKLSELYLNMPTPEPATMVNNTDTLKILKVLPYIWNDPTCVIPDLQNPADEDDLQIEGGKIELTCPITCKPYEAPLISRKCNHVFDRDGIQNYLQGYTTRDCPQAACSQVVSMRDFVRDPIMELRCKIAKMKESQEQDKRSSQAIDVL
# B2: Structural maintenance of chromosomes protein 5 (Saccharomyces cerevisiae), Q08204 (parent)
# chain: B1 chain
# Variants of: B1
# Conditions: with nse2_yeast MMS21, P38632
row,effect of a mutation on the interaction,Variant
1,decreasing interaction strength,Q752A;L755A;L762A
2,disrupting interaction strength,I780R;I784R;F787A;N791A

# Variants of: B2
# Conditions: with smt3_yeast SMT3, Q12306
# Chain of smt3_yeast SMT3, Q12306 (Q12306 whole entry): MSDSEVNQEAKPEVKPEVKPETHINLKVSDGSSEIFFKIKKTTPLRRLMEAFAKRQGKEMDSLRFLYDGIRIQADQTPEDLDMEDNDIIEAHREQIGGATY
row,effect of a mutation on the interaction,Variant
1,disrupting interaction strength,I780R;I784R;F787A;N791A
2,decreasing interaction strength,M769A;K773A
3,decreasing interaction strength,Q752A;L755A;L762A
